Measured values: the DeepSol protein solubility set

Test: soluble on expression in E. coli; label from the status in PepcDB or PDB records

| Sequence | soluble on expression in E. coli |
| --- | --- |
| TSLKQNQLNLSTLLVNPEGPTLTQLNSVQSSERPLFLVHPIEGSTTVFHSLAAKLSVPTYGLQCTQAAPLDSIPNLAAYYIDCIKQVQPEGPYRIAGYSFGACVAFEMCSQLQAQQGPAPTHNNLFLFDGSHTYVLAYTQSYRAKMTPGCEAEAEAEALCFFIKQFLDVEHSKVLEALLPLKSLEDRVAASVDLITKSHHSLDRRELSFAAVSFYHKLRAADQYKPKAKYHGNVTLLRAKTGGTYGEDLGADYNLSQVCDGKVSVHIIEGDHRTLLEGSGLESIINIIHSS | soluble |
| MAHHHHHHMGCKNSKAREPPADTVTAAQANIATNKNSSTAPTLSPAQHHAKQTGETKRNNAASPASRGNNGEASENESRSEQPKKALGPGGNDVKQAASNSPSKQELDDEGNPLLLPNGDWVRTEGTPFYYSVEENLYFHPPSCQFYDPTNGMWYDPEKDEWYYDDENGAQE | soluble |
| PTRQVLQGSRCRLEPLTLAHASDLFAAHQLAPDARSWTWLLREPESNLAEFSAWVEQVATLADPIHFAVVDQQRGKAVGSLALMRIDIAHGVVEVGHVHFSPLLSRTAMATEAHWLLMQYVFDTLGYRRYEWKCNSLNIPSARAARRLGFQYEGRFRQALVSKGHNRDTDWFSVIDGEWPELDNAMRQWLAADNFTA | not soluble |
| MAHHHHHHMSVSSPLASSGEREQYGPQEQRQYGFVPVQMTNLVPVRVVSVHGDFFDMEIHQDAPLHIVQRAAEDCFKVRPELQLLTHNRKPINPNQSLRRNGCLLLKGDPFVKIVLDVKKGSRLNIVCQMAHCEPIPLACEAEDTIWDVKKKFCSSLEKSEVTPQRIRLLWRYWELNDKATVDYYHIPTNSKLTVMKKRDILGGQQTERRRAPSQRRRQDVQRRHERCDADTDDVAAWPKAPSVVPPYEKYRQASGREPLEGEDNRSKTPNANGSAQVVEGGADRDSHHPPIRAWPALPQEQFGRAVIPLYPIVPPLSGGSYYREPRAQTPDRRPAVVPVAEATQVVDFTEVQRLRMEVEELGRRMETCVTDRAEFSAMEESFRAAVTRVSELEASVGRVQNLLKRALHLM | not soluble |
| MFPIHYQFSIIHYPLKKEMKLNLKNPIVFFDLETTGTNINTDRIVEICYLKVYPNGNEETKTMRINPEMHIPEASSAVHGIYDADVADCPTFKEVAKNVARDIEGCDLAGFNSNRFDIPVLAEEFLRAGVDIDMTKRKFVDVQVIFHKMEQRTLSAAYKFYCEKSLEDAHTAEADTRATYEVLKAQLDRYPDLQNDIAFLAEYSSFTKNVDFAGRMVYDDNGVEVFNFGKYKGMSVAEVLKKDPGYYSWILNSDFTLNTKAVLTKIRLREMSNLITK | soluble |
| MGSDKIHHHHHHMDQQKKIQILKDLVNIDSTNGHEEQVANYLQKLLAEHGIESEKVQYDLDRASLVSEIGSSNEKVLAFSGHMDVVDAGDVSKWKFPPFEATEHEGKLYGRGATDMKSGLAAMVIAMIELHEEKQKLNGKIRLLATVGEEIGELGAEQLTQKGYADDLDGLIIGEPSGHRIVYAHKGSINYTVKSTGKNAHSSMPEFGVNAIDNLLLFYNEVEKFVKSIDATNEILGDFIHNVTVIDGGNQVNSIPEKAQLQGNIRSIPEMDNETVKQVLVKIINKLNKQENVNLELIFDYDKQPVFSDKNSDLVHIAKSVASDIVKEEIPLLGISGTTDAAEFTKAKKEFPVIIFGPGNETPHQVNENVSIGNYLEMVDVYKRIATEFLS | not soluble |
| MGSDKIHHHHHHMAFKNLKELSFEKSNYIKPKRFAYESNGRLCTWDFIESKDSVSVLLYHKELESFIFVRQFRIPLWYHQMHDKDYVKDDDMGYTIELCSGLVDKKLSLEEIAKEECIEELGYAPKNLEKIGDFYTGFGSGVSKQSFYFVEVDEKDKISSGGGVDDEEIEAVYVKVQDFEKKCKNMIRTPLLDFAYMWFLKEKWGKLKII | not soluble |
| MSLGILRQAHWRNPSLERSPALILAHGCFEDVHGKVAHGLVRGTDRFDIVAVIDPDCAGHDAGTLLDGRPRNIPVFASIEAALAQGRRRPAVAIVGMATHGGRFTETLRAALFEAAAAGLSLVNGLHDLAGDDPEIAAETARHGASILDLRRPRAVAELHFWTGQIHGVAAPRIAVLGTDCALGKRTTARLLTQALNADGIRTEMIYTGQTGWMQGGRYGFILDALPNDFVSGELEHAILTCYREVRPDLIILEGQSALRNPSGPCGAELLLSGAAAGVILQHAPGRRHYDGFEGSRFRIPPVEDEIRLIEHYGVPVLGVSLNGRDSGPEGLREAQRRLARTLDVPVVCPLEDGVTDLLPPLRALLEREEVAEGHHHHHH | soluble |
| MSLASVWKRLQRVGKHASKFQFVASYQELMVECTKKWQPDKLVVVWTRRSRRKSSKAHSWQPGIKNPYRGVVVWPVPENIEITVTLFKDPHAEEFEDKEWTFVIENESPSGRRKALATSSINMKQYASPMPTQTDVKLKFKPLSKKVVSATLQFSLSCIFLREGKATDEDMQSLASLMSMKQADIGNLDDFEEDNEDDDENRVNQEEKAAKITEGHHHHHH | not soluble |
| MTGSNSHITILTLNINGLNSAIKRHRLASWIKSQDPSVCCIQETHLTCRDTHRLKIKGWRKIYQANGKQKKAGVAILVSDKTDFKPTKIKRDKEGHYIMVKGSIQQEELTILNIYAPNTGAPRFIKQVLSDLQRDLDSHTLIMGDFNTPLSTLDRSTRQKVNKDTQELNSALHQADLIDIYRTLHPKSTEYTYVRVRDGHVSQSKIDHIVGSKALLSKCKRTEIITNYLSDHSAIKLELR | soluble |
| MLNLSSNQAAAVTVSETAELPEALEQLGLSNSRPVLVIVGGASQTSEADFLRIQSLFVEVLAPIAQSLGAYVVDGGTDAGVMRLMGDARSQINGQFPLIGVAPTAKVILPNQTTILADDATPLEPHHSHFVLIPGSKWGDESPWIVKVATLLANGLPSITVLINGGEISFLEHHHHHH | soluble |
| MTTETQADRTQQAVGRIIGSIGVVTTQTTGRHQGILTSWVSQASFTPPGIMLAIPGEFDAYGLAGQNKAFVLNLLQEGRSVRRHFDHQPLPKDGDNPFSRLEHYSTQNGCLILAEALAYLECLVQSWSNIGDHVLVYATVQAGQVLQPNGITAIRHRKSGGQYLEHHHHHH | not soluble |
| MTIRFDNVSYTYQKGTPYQHQAIHDVNTEFEQGKYYAIVGQTGSGKSTLIQNINALLKPTTGTVTVDDITITHKTKDKYIRPVRKRIGMVFQFPESQLFEDTVEREMIFGPKNFKMNLDEAKNYAHRLLMDLGFSRDVMSQSPFQMSGGQMRKIAIVSILAMNPDIIVVDEPTAGLDPQSKRQVMRLLKSLQTDENKAIILISHDMNEVARYADEVIVMKEGSIVSQTSPKELFKDKKKLADWHIGLPEIVQLQYDFEQKYQTKLKDIALTEEAFVSLYKEWQHEK | not soluble |
| MPGEFAKFPEQSAGSHQFRNPLDELTGSNTITNLTAHDFDYFTQSEKNSNLYTSENTSNSNRLNLNQNIPVGTLIDGFELINEASGSGFLDDQLVDVSDYSRDRTTKLDRNRNSPELIVALLQRKVQGIRFSSNYGREEEPCVIEIPPGTMVREMADDDWKMSELKEWFTKSRASSHLRDGLAMPMEELDCTPLICAMITRSDVMRINQDQAIHLLAVSVEKRIEVYQNFEWFNFILNLKIGDSVSVEVDETMRRVPAKVSWIGERPEASGIWYNVDFDGNTSQWPSSNQSYSSSHDRLNRQFDTNWNFEMSGSSSVAPSNSRLYYSPNQMHMPMKGGGVSALYDNRRLVQYSGDEEQYRSAPKPAPRERIIPVSRQQPEIEQRNSRSMKPSEPDYNTYSTHPPRPPPSSSMNYPSMSNTHSLQPSRSKSVQTIQRNQFVRQNPAERNERVESDQLNFRIGDQCIWNNNGAEERGIIKYIGFLKGHKTLYAGVEFKNTIGAGTGVFNREQLFLAKDGHAGFVELSSLESPSSSISSTSTSSSQHRRRLSSSRSQQMPAASGTSISVPVNGRHNVNGKQASIESLSDPPPPPYAPPSPPRASSAAAAHQQPPPLPPKPLARVEDFLIDSYDIGSHVVVRHLGAQRTGVVRWLGEEIDDEGDRIVRSAIVQLDEDVPTAWRRSHDASSYTGSPVVGGVLVPIQSLKHNHSGSSSNGASVVQTSTYPTSQTYNNISRRTEDFGSMDSGVEKQKCGIAKDMQQLVGRQKGIQGYCNSCYLDATLYAMFVQTTCFDFLLEKSIKGSETAQQFQKILAHEIVFPLRKVHYVRADHVMKLRKLLAELMPHVTGLTNEEKDPEEILGFIFSKVFHAEPFIKLIGQNHAKDSQYLVPIVVDDWLGGAATSQHLLERHMRSAQVTFAKAPPVLIMQLPRYGQQKVFDKILPLETIDITPFVAGAVPACSKCQACSEVYCPTCFLTRRVFYSEVIFCRKCFHHTHLLPEIEDHKSRDLYPPGKPQKKPHSHKMVLSAVLCIETSHYVAYVRTSSNQWVFFDSMADREGLSDGFNVPVVRECGNMSDWLSLQGWNRLKDADECGQIKVWELNKNISPNDRKLEIAMFGKQSSLDPLVGRLLSDSYICFYEDASPTSSSSSSSTIISSIKNMMN | not soluble |
| MRGSHHHHHHGSKVRGKYDGPKINDYDKFYEDIWKKYVPQPVEVKQGSVYDYYDILEELGSGAFGVVHRCVEKATGRVFVAKFINTPYPLDKYTVKNEISIMNQLHHPKLINLHDAFEDKYEMVLILEFLSGGELFDRIAAEDYKMSEAEVINYMRQACEGLKHMHEHSIVHLDIKPENIMCETKKASSVKIIDFGLATKLNPDEIVKVTTATAEFAAPEIVDREPVGFYTDMWAIGVLGYVLLSGLSPFAGEDDLETLQNVKRCDWEFDEDAFSSVSPEAKDFIKNLLQKEPRKRLTVHDALEHPWLKGDHSNLTSRIPSSRYNKIRQKIKEKYADWPAPQPAIGRIANFSSLRKHRPQEYQIYDSYFDRKEAVPRFKLRPSLISS | soluble |
| MVTFMITSALHRAADWAKSVFSSAALGDPRRTARLVNVAAQLAKYSGKSITISSEGSKAAQEGAYRFIRNPNVSAEAIRKAGAMQTVKLAQEFPELLAIEDTTSLSYRHQVAEELGKLGSIQDKSRGWWVHSVLLLEATTFRTVGLLHQEWWMRPDDPADADEKESGKWLAAAATSRLRMGSMMSNVIAVCDREADIHAYLQDKLAHNERFVVRSKHPRKDVESGLYLYDHLKNQPELGGYQISIPQKGVVDKRGKRKNRPARKASLSLRSGRITLKQGNITLNAVLAEEINPPKGETPLKWLLLTSEPVESLAQALRVIDIYTHRWRIEEFHKAWKTGAGAERQRMEEPDNLERMVSILSFVAVRLLQLRESFTPPQALRAQGLLKEAEHVESQSAETVLTPDECQLLGYLDKGKRKRKEKAGSLQWAYMAIARLGGFMDSKRTGIASWGALWEGWEALQSKLDGFLAAKDLMAQGIKIG | soluble |
| MGSVRKASAWLGLVDDNNDDERYYDDDYSEGPESGDAWVTDPRVKVASDVAEEKGRRIATVTPDSFRDARAIGELFRDGVPVIVNLTAMEGTDAKRVVDFAAGLIFGLRGSIERVSTRVFLLSPADTQVISGESAAHRSDGFFNQSLEHHHHHH | not soluble |
| MAGQEFEKLLFYIVTVPFFVRAEPTTGELINPQAGAPFFLATAATTMDYEVEMVITSEAGYLLMRDNAKKVKVRPGVEQTVYDFIKMAKDAGVKIYLCTPSLDLTDIYKEEDVNKEICDGILGGAAFLDKLMSGEYAVITL | not soluble |
| MKKHIIIKTIPKKEEIISRDLCDCIYYYDNSVICKPIGPSKVYVSTSLENLEKCLQLHYFKKLVKNIEIFDEVHNSKPNCDKCLIVEIGGVYFVRRVNGVPR | soluble |
| MKITVIVPTYRRTKDLTRCLESLEKQSRPADEVLVVVRDTDVETWQFLETIAPHSLPLHTTTVRVPGVVAAMNAGLDIAQGDIIAFTDDDAAPHSNWLAQIETHFLAHEQIAGVGGRDWVYHGDRLEDGTCPVVGQVHWFGRVIGNHHIGIGKPREVDVLKGVNMSFRRSAVHGLRFDQRMLGTGAQVHFEVAFCLALKRAGWKLIYDPQIGVNHYPAQRFLEHHHHHH | not soluble |
